Substitutions are numbered along the chain they refer to. Marks after values point to notes of the source that are not given here.
B1: Ab3-CZ (conjugate)
VH: EVKLVESGGGLVQPGNSLRLSCATSGFTFIDYYMSWVRQSPGKALEWLGFIRNKANGYTTEYSASVKGRFTISRDNSQSILYLQMDTLRAEDSATYYCTRDRPAWFVYWGQGTLVTVSA
VL: DIVMSQSPSSLAVSVGEKVTMSCKSSQSLLYSSNQKNYLAWYQQKPGQSPKLLIYWASTRESGVPDRFTGSGSGTDFTLTFSSVRAEDLAVYYCQQYYSYPYTFGGGTKLEIK
B2: Ab5-CZ (conjugate)
VH: EVKLVESGGGLVQPGGSLRLSCATSGFTFTDYYMTWVRQPPGKALEWLGFIRNKANGYTTEYSASVKGRFTISRDNSLSILYLQMNTLRAEDSATYYCARASYVNSEGWFAYWGQGTLVTVSA
VL: B1 VL with P46L, F81I, R85K, Q96H, Y102R
B3: ChAb3- CZ-DAR2 (conjugate)
VH: B1 VH
VL: B1 VL
B4: ChAb3- CZ-Broad DAR (conjugate)
VH: B1 VH
VL: B1 VL
B5: ChAb3- CZ-DAR4 (conjugate)
VH: B1 VH
VL: B1 VL
B6: ChAb5-CZ (conjugate)
VH: B2 VH
VL: B1 VL with P46L, F81I, R85K, Q96H, Y102R
B7: ChAb3-CZ (conjugate)
VH: B1 VH
VL: B1 VL
B8: ChAb11-CZ (conjugate)
VH: EVQLVESGGGLVQPGRSLKLSCAASGFTFSDYAMAWVRQAPKKGLEWVAGIIYDGRGTYYRDSVKGRFTISRDNAKSTLYLQMDSLRSEDTATYYCARQGDGTYYYWGYFDYWGQGVMVTVSS
VL: DIVMTQSPSSLAVSAGETVTINCRSSQSLLSSGNQKNYLAWYQQKPGQSPKLLIYWASTRQSGVPDRFIGSGSGTDFTLTISSVQAEDLAIYYCQQYYDTPYTFGAGTKLELK
B9: ChAb8-CZ (conjugate)
VH: B8 VH with G50S
VL: B8 VL with R24K, S82N
B10: ChAb12-CZ (conjugate)
VH: B8 VH with G50S, Y109S
VL: B8 VL with R24K, Y93H
B11: ChAb15-CZ (conjugate)
VH: B8 VH with A33T, G50T, G100S
VL: B8 VL with R24K, S31F, S82R, T100S
B12: ChAb13-CZ (conjugate)
VH: QVQLKESGPGLVQPSQTLSLTCTVSGFSLSSYGVIWVRQPPGKGLEWMGIIWANGNTNYNSALKSRLSISRDTSKSQVYLKMNSLQTEDTATYYCARHYYDGTHYYGYFDYWGQGVMVTVSS
VL: DTVMTQTPSSQAVSAGEKVTMSCKSSQSLLYSENKKKYLAWYQQKPGQSPKLLIYWASTRESGVPDRFIGSGSGTDFTLTISSVQAEDLAVYYCQQYYNFPYTFGAGTKLELK

system: NCI-H146 (human small cell lung cancer) xenograft; assay: NCI-H146 xenograft tumor growth inhibition; assay type: in vivo, SCID-bg mice; conditions: 10 mg/kg/day IP QDx1
Method: The in vivo efficacy of anti-CD98 hybridoma mAb conjugates were tested using Ab3-CZ and Ab5-CZ as examples in NCI-H146 (human small cell lung cancer) xenograft model. The two anti-CD98 hybridoma mAb, Ab3-CZ and Ab5-CZ, were conjugated to the Bcl-xL inhibitor synthon CZ according to Method A. NCI-H146 was obtained from the American Type Culture Collection (ATCC, Manassas, Va.). The cells were cultured as monolayers in RPMI-1640 culture media (Invitrogen, Carlsbad, Calif.) that was supplemented with 10% Fetal Bovine Serum (FBS, Hyclone, Logan, Utah). To generate xenografts, 5×10^6 (NCI-H146) viable cells were inoculated subcutaneously into the right flank of immune deficient female SCID-bg mice (Charles River Laboratories, Wilmington, Mass.). The injection volume was 0.2 mL and composed of Matrigel (BD, Franklin Lakes, N.J.). Tumors were size matched at approximately 212 mm^3. Antibodies and conjugates were formulated in phosphate buffered saline, pH 7.2 and injected intraperitoneally. […] Therapy began within 24 hours after size matching of the tumors. Mice weighed approximately 21 g at the onset of therapy. Tumor volume was estimated two to three times weekly. Measurements of the length (L) and width (W) of the tumor were taken via electronic caliper and the volume was calculated according to the following equation: V=L×W^2/2. Mice were euthanized when tumor volume reached 3,000 mm^3 or skin ulcerations occurred. Eight mice were housed per cage. Food and water were available ad libitum. Mice were acclimated to the animal facilities for a period of at least one week prior to commencement of experiments. Animals were tested in the light phase of a 12-hour light: 12-hour dark schedule (lights on at 06:00 hours). Anti-CD98 conjugates (10 mg/kg) were administered as a single dose (QD×1) intraperitoneally. A human IgG control antibody (MSL109, a humanized IgG1 antibody that binds to cytomegalovirus (CMV) glycoprotein H) was used as a negative control agent.
To refer to efficacy of therapeutic agents, parameters of amplitude (TGImax), durability (TGD) and response frequency (CR, PR, OR) of therapeutic response are used. The efficacy of inhibition of NCI-H146 xenografts growth with CD98-targeted ADCs is illustrated by Table 6, below. In the tables, to refer to efficacy, parameters of amplitude (TGImax) and durability (TGD) of therapeutic response are used. TGImax is the maximum tumor growth inhibition during the experiment. Tumor growth inhibition is calculated by 100*(1−Tv/Cv) where Tv and Cv are the mean tumor volumes of the treated and control groups, respectively. TGD or tumor growth delay is the extended time of a treated tumor needed to reach a volume of 1 cm^3 relative to the control group. TGD is calculated by 100*(Tt/Ct−1) where Tt and Cr are the median time periods to reach 1 cm^3 of the treated and control groups, respectively. Distribution of the response amplitude in a specific group is given by the frequency of complete responders (CR), partial responders (PR), and overall responders (OR). CR is the percentage of mice within a group with a tumor burden of 25 mm^3 for at least three measurements. PR is the percentage of mice within a group with a tumor burden larger than 25 mm^3 but less than one-half of the volume at onset of treatment for at least three measurements. OR is the sum of CR and PR.

| Molecule | Growth Inhibition TGImax (%) |
| --- | --- |
| MSL109: "a humanized IgG1 antibody that binds to cytomegalovirus (CMV) glycoprotein H", "used as a negative control agent" [reference compound] | 0% |
| B1 | 79* % |
| B2 | 76* % |

same assay, conditions: 10 mg/kg/day IP QDx1, complete responders

| Molecule | Response Frequency CR (%) |
| --- | --- |
| MSL109: "a humanized IgG1 antibody that binds to cytomegalovirus (CMV) glycoprotein H", "used as a negative control agent" [reference compound] | 0 |
| B1 | 0 |
| B2 | 0 |

same assay, conditions: 10 mg/kg/day IP QDx1, overall responders

| Molecule | Response Frequency OR (%) |
| --- | --- |
| MSL109: "a humanized IgG1 antibody that binds to cytomegalovirus (CMV) glycoprotein H", "used as a negative control agent" [reference compound] | 0 |
| B1 | 50 |
| B2 | 0 |

same assay, conditions: 10 mg/kg/day IP QDx1, partial responders

| Molecule | Response Frequency PR (%) |
| --- | --- |
| MSL109: "a humanized IgG1 antibody that binds to cytomegalovirus (CMV) glycoprotein H", "used as a negative control agent" [reference compound] | 0 |
| B1 | 50 |
| B2 | 0 |

same assay, conditions: 10 mg/kg/day IP QDx1, tumor growth delay to 1 cm^3

| Molecule | Growth Inhibition TGD (%) |
| --- | --- |
| MSL109: "a humanized IgG1 antibody that binds to cytomegalovirus (CMV) glycoprotein H", "used as a negative control agent" [reference compound] | 0% |
| B1 | 81* % |
| B2 | 76* % |

system: not listed separately; assay: Percent aggregates of ADC by size exclusion chromatography; assay type: physicochemical; conditions: chAb3-CZ DAR2, DAR4 and broad DAR species (Table 12)
Excerpt: Procedures for DAR and percent aggregate determination are described above in Example 5.

| Molecule | % Aggregates by SEC [%] |
| --- | --- |
| B3 | 0.5 |
| B4 | 12.2 |
| B5 | 13.8 |

system: EBC-1 (human lung squamous cell carcinoma) xenograft; assay: EBC-1 xenograft tumor growth inhibition; assay type: in vivo; conditions: 10 mg/kg/day IP QDx1, SCID-bg mice

| Molecule | Growth Inhibition TGD (%) | Growth Inhibition TGImax (%) | Response Frequency CR (%) | Response Frequency OR (%) | Response Frequency PR (%) |
| --- | --- | --- | --- | --- | --- |
| B6 | 61* % | 70* % | 0 | 0 | 0 |
| B3 | 32* % | 55* % | 0 | 0 | 0 |
| B7 | 37* % | 54* % | 0 | 0 | 0 |
| B8 | 37* % | 55* % | 0 | 0 | 0 |
| B9 | 42* % | 56* % | 0 | 0 | 0 |
| B10 | 74* % | 76* % | 0 | 25 | 25 |
| B11 | 74* % | 70* % | 0 | 0 | 0 |
| B12 | 47* % | 61* % | 0 | 0 | 0 |
